Tests used:
[1] = test system: monolayer ES cells; experiment: In vitro differentiation of monolayer ES cells, RT-PCR of differentiation marker genes; format: cell-based, mouse; settings: SRF-containing (Srf(−/+)) ES cells in monolayer, LIF withdrawal plus agent
Method: In vitro differentiation conditions. For differentiation experiments, cells were seeded in monolayers on gelatin-coated dishes and kept overnight in complete medium. The first day after seeding was defined to be day 0 of differentiation. The medium was then exchanged by complete medium lacking LIF or complete medium without LIF, but containing either 0.8% dimethylsulfoxide (DMSO) or 5×10^−7 M all-trans RA, respectively. Medium was exchanged daily and cells were harvested at the indicated time points for RT-PCR analysis. The vitality was determined by trypan blue staining. The vitality of detached cells was less than 5%.
Total RNA preparation (RNeasy kit, QUIAGEN) and first strand cDNA synthesis (Superscript II, Gibco) were done according to the manufacturers protocols. 1 μg of total RNA treated with DNAse I was used for reverse transcription. […] For quantitative analysis, SYBR Green PCR technology was used (Perkin Elmer). Real time detection of the PCR product was monitored by measuring the increase in fluorescence caused by the binding of SYBR Green to double-stranded DNA with ABI PRISM 7700 Sequence Detector. In order to do relative quantification, a threshold cycle (Ct), the cycle at which a statistically significant increase in fluorescence occurs, was derived from the resulting PCR profiles of each sample. […] The relative quantitation value is expressed as […]. […]

[2] = test system: Srf(−/−) ES cells; experiment: F-actin / stress fiber immunofluorescence and cell morphology after transient transfection of ES cells; format: cell-based, mouse
Method: Alternatively, the cells were grown on gelatine-coated coverslips in complete growth medium for 48 hours, or as EBs in droplets for up to 8 days. The samples were then fixed in 4% formaldehyde and permeabilized in 0.2% Triton-X 100. Non-specific binding was blocked by incubating the cells for one hour in 1% BSA in PBS at 37° C. before staining with primary antibodies for 1 hour at 37° C. Incubation with fluorescence conjugated secondary antibodies (Molecular Probes, 1:200 in 0.2% BSA) was performed for 30 min at 37° C. To visualize filamentous actin, 1 unit Oregon-green phalloidin was included into the mixture. Coverstips were washed four times with PBS, once in water, air-dried and mounted in Moviol. Image acquisition was done with LSM 510 (Zeiss).
(C) SRF-VP16 expression leads to increased stress fiber formation. […] ES cells were transiently transfected with SRF-VP16 (upper panel) and the SRF-M-VP16 control construct (lower panel) and processed for immunofluorescence analysis three days later. […]
SRF-VP16 fusion proteins were previously used to drive SRF-dependent transcription independent of upstream signalling cascades (Hines et al., 1999; Johansen and Prywes, 1994;Treisman et al., 1992). […] Undifferentiated ES cells were transiently transfected with SRF-VP16 and SRF M-VP16 expression vectors, and RNA expression levels were measured by quantitative RT-PCR (FIG. 17B). […]

## C[S+](C)[O-] [DMSO, dimethylsulfoxide]
[1]
  timing of mesodermal marker gene induction versus LIF withdrawal alone: earlier induction

B1: zyxin: focal adhesion protein transiently overexpressed in Srf(−/−) ES cells (protein, UniProt Q15942 2-572, looked up)
Zyxin: AAPRPSPAISVSVSAPAFYAPQKKFGPVVAPKPKVNPFRPGDSEPPPAPGAQRAQMGRVGEIPPPPPEDFPLPPPPLAGDGDDAEGALGGAFPPPPPPIEESFPPAPLEEEIFPSPPPPPEEEGGPEAPIPPPPQPREKVSSIDLEIDSLSSLLDDMTKNDPFKARVSSGYVPPPVATPFSSKSSTKPAAGGTAPLPPWKSPSSSQPLPQVPAPAQSQTQFHVQPQPQPKPQVQLHVQSQTQPVSLANTQPRGPPASSPAPAPKFSPVTPKFTPVASKFSPGAPGGSGSQPNQKLGHPEALSAGTGSPQPPSFTYAQQREKPRVQEKQHPVPPPAQNQNQVRSPGAPGPLTLKEVEELEQLTQQLMQDMEHPQRQNVAVNELCGRCHQPLARAQPAVRALGQLFHIACFTCHQCAQQLQGQQFYSLEGAPYCEGCYTDTLEKCNTCGEPITDRMLRATGKAYHPHCFTCVVCARPLEGTSFIVDQANRPHCVPDYHKQYAPRCSVCSEPIMPEPGRDETVRVVALDKNFHMKCYKCEDCGKPLSIEADDNGCFPLDGHVLCRKCHTARAQT
[2]; transient overexpression in Srf(−/−) ES cells
  rescue of defective actin cytoskeleton: did not rescue the defective actin cytoskeleton

B2: wildtype SRF protein: wildtype serum response factor reintroduced by expression vector (protein, UniProt P11831 1-508, looked up)
Serum response factor: MLPTQAGAAAALGRGSALGGSLNRTPTGRPGGGGGTRGANGGRVPGNGAGLGPGRLEREAAAAAATTPAPTAGALYSGSEGDSESGEEEELGAERRGLKRSLSEMEIGMVVGGPEASAAATGGYGPVSGAVSGAKPGKKTRGRVKIKMEFIDNKLRRYTTFSKRKTGIMKKAYELSTLTGTQVLLLVASETGHVYTFATRKLQPMITSETGKALIQTCLNSPDSPPRSDPTTDQRMSATGFEETDLTYQVSESDSSGETKDTLKPAFTVTNLPGTTSTIQTAPSTSTTMQVSSGPSFPITNYLAPVSASVSPSAVSSANGTVLKSTGSGPVSSGGLMQLPTSFTLMPGGAVAQQVPVQAIQVHQAPQQASPSRDSSTDLTQTSSSGTVTLPATIMTSSVPTTVGGHMMYPSPHAVMYAPTSGLGDGSLTVLNAFSQAPSTMQVSHSQVQEPGGVPQVFLTASSGTVQIPVSAVQLHQMAVIGQQAGSSSNLTELQVVNLDTAHSTKSE
[2]; reintroduction by transient transfection
  effects on gene expression and cytoskeletal rearrangements: only minor effects

Source: patent US20040009913A1, “Use of serum response factor (srf) modulator for treating srf related diseases” (priority 2000, published 2004)
